Laboratory results: patent publication US20190085323A1 (published 2019)

Experiments:
[1] = biological target: T1, HER2 on the surface of N87 gastric cancer cells (human, UniProt P04626 23-1255); experiment: cell-based or functional assay
[2] = biological target: T1, HER2 on the surface of N87 gastric …; experiment: flow cytometry on N87 cells, 0.5 nM scFv detected with AL1-RFP
[3] = biological target: T2, HER2-ECD (recombinant extracellular domain of human epidermal growth factor receptor 2) (human, UniProt P04626 23-652); experiment: ELISA, IgG1 titrated on immobilized HER2-ECD
T2 construct: extracellular domain; Recombinant HER2-ECD coated on ELISA plates

B1: 35CPT-9 source scFv (scFv)
chain: DIQMTQSPSSLSASVGGRVTITCKSNQNLLDSYGRTYLYWYQQKPGKAPKLLISGTSGLYSGVPSRFSGSGSGTDFTLTISSLQPEDFATYYCFQGYDYPFTFGQGTKVEIKREVQLVESGGGLVQPGGSLRLSCKASGYTFGDYGMHWVRQAPGKGLEWVAHIAPNDGITHYADSVKGRFTISADTSKNTAYLQMNSLRAEDTAVYYCARGYGWYDHVMDYWGQGTLVTVSSASAAA
% cell viability (AL1) [1]: 69.8% | % cell viability (AL2) [1]: 17.9% | MFI [2]: 287

B2: 30CHS-13 source scFv (scFv)
chain: DIQMTQSPSSLSASVGDRVTITCKSNQNLLDSGNQRTYLNWYQQKPGKAPKLLIYHTSRLYSGVPSRFSGSGSGTDFTLTISSLQPEDFATYYCSQTFRHPGTFGQGTKVEIKREVQLVESGGGLVQPGGSLRLSCKASGYTFGHYSMFWVRQAPGKGLEWVASIYPHYGHTYYADSVKGRFTISADTSKNTAYLQMNSLRAEDTAVYYCARGHWLDYWGQGTLVTVSSASAAA
% cell viability (AL1) [1]: 75.8% | % cell viability (AL2) [1]: 77.7% | MFI [2]: 93

B3: 31YCM#5 source scFv (scFv)
chain: DIQMTQSPSSLSASVGDRVTITCKSNQNLLDSHGWTYLHWYQQKPGKAPKLLIYDASNLYSGVPSRFSGSGSGTDFTLTISSLQPEDFATYYCSQSYRLPYTFGQGTKVEIKREVQLVESGGGLVQPGGSLRLSCKASGYTFGGSYMHWVRQAPGKGLEWVARIYPHYGYTYYADSVKGRFTISADTSKNTAYLQMNSLRAEDTAVYYCARGDDHFDYWGQGTLVTVSSASAAA
% cell viability (AL1) [1]: 89.5% | % cell viability (AL2) [1]: 71.8% | MFI [2]: 165

B4: 2835-28 IgG1 (antibody, V domains shown)
VH: EVQLVESGGGLVQPGGSLRLSCKASGYTFTDGSMHWVRQAPGKGLEWVAYINPYFGDTYYADSVKGRFTISADTSKNTAYLQMNSLRAEDTAVYYCARGWIDYWGQGTLVTVSS
VL: DIQMTQSPSSLSASVGDRVTITCKSNQNLLLSNGRTFLYWYQQKPGKAPKLLIYGTSYLYSGVPSRFSGSGSGTDFTLTISSLQPEDFATYYCFQANHLPWTFGQGTKVEIKR
EC50 [3]: 3.9 ng/mL

B5: 35WYK-9 IgG1 (antibody, V domains shown)
VH: EVQLVESGGGLVQPGGSLRLSCKASGYTFSHWGMHWVRQAPGKGLEWVAGIYPYFGNTYYADSVKGRFTISADTSKNTAYLQMNSLRAEDTAVYYCARGLLDYWGQGTLVTVSS
VL: DIQMTQSPSSLSASVGDRVTITCKSNQNLLLSNGRTFLHWYQQKPGKAPKLLIFDVSNLYSGAPSRFSGSGSGTDFTLTISSLQPDDFATYYCSQTSRFPWTFGQGTKVEIKR
EC50 [3]: 5.7 ng/mL

B6: 29TYL#10 IgG1 (antibody, V domains shown)
VH: EVQLVESGGGLVQPGGSLRLSCKASGYTFTDGSMHWVRQAPGKGLEWVAYINPYFGDTYYADSVKGRFTISADTSKNTAYLQMNSLRAEDTAVYYCARGWIDYWGQGTLVTVSS
VL: DIQMTQSPSSLSASVGDRVTITCKSNQNLLLSNGRTFLYWYQQKPGKAPKLLIYGTSYLYSGVPSRFSGSGSGTDFTLTISSLQPEDFATYYCFQANHLPWTFGQGTKVEIKR
EC50 [3]: 3.8 ng/mL

B7: 35WYK-16 IgG1 (antibody, V domains shown)
VH: EVQLVESGGGLVQPGGSLRLSCKASGYTFGTSWMHWVRQAPGKGLEWVAGITPYYGLTFYADSVKGRFTISADTSKNTAYLQMNSLRAEDTAVYYCARGNLDYWGQGTLVTVSS
VL: DIQMTQSPSSLSASVGDRVTITCKSNQNLLLSNGRTFLYWYQQKPGKAPKLLIYDVSDLYSGVPSRFSGSGSGTDFTLTISSLQPEDFATYYCFQGNNFPYTFGQGTKVEIKR
EC50 [3]: 6.2 ng/mL

B8: 29TYL#1 IgG1 (antibody, V domains shown)
VH: EVQLVESGGGLVQPGGSLRLSCKASGYTFSTGSMHWVRQAPGKGLEWVAHINPHFGLTLYADSVKGRFTISADTSKNTAYLQMNSLRAEDTAVYYCAGSGFDYWGQGTLVTVSS
VL: DIQMTQSPSSLSASVGDRVTITCKSNQNLLLSNGWTFLNWYQQKPGKAPKLLISRISDLYSGVPSRFSGSGSGTDFTLTISSLQPEDFATYYCFQASDFPYTFGQGTKVEIKR
EC50 [3]: 4.1 ng/mL

B9: 31YCM#5 IgG1 (antibody, V domains shown)
VH: EVQLVESGGGLVQPGGSLRLSCKASGYTFGGSYMHWVRQAPGKGLEWVARIYPHYGYTYYADSVKGRFTISADTSKNTAYLQMNSLRAEDTAVYYCARGDDHFDYWGQGTLVTVSS
VL: DIQMTQSPSSLSASVGDRVTITCKSNQNLLDSHGWTYLHWYQQKPGKAPKLLIYDASNLYSGVPSRFSGSGSGTDFTLTISSLQPEDFATYYCSQSYRLPYTFGQGTKVEIKR
notes: also called 3 YCM #5
EC50 [3]: 6.3 ng/mL

B10: 31YCM#3 source scFv (scFv)
chain: DIQMTQSPSSLSASVGDRVTITCKSNQNLLISGNQWTFLNWYQQKPGKAPKLLIYDVSRLYSGVPSRFSGSGSGTDFTLTISSLQPEDFATYYCYQGSDFPGTFGQGTKVEIKREVQLVESGGGLVQPGGSLRLSCKASGYTFARSGMHWVRQAPGKGLEWVAGISPNYGLTHYADSVKGRFTISADTSKNTAYLQMNSLRAEDTAVYYCARGFGVLDYWGQGTLVTVSSASAAA
% cell viability (AL1) [1]: 96.4% | % cell viability (AL2) [1]: 91.5% | MFI [2]: 177

B11: 30CHS-41 source scFv (scFv)
chain: DIQMTQSPSSLSASVGDRVTITCKSNQNLLDSGHQRTYLNWYQQKPGKAPKLLIYHTSLLYSGVPSRFSGSGSGTDFTLTISSLQPEDFATYYCSQTFRHPGTFGQGTKVEIKREVQLVESGGGLVQPGGSLRLSCKASGYTFTHWGMHWVRQAPGKGLEWVARINPYYGLTHYADSVKGRFTISADTSKNTAYLQMNSLRAEDTAVYYCARGHWLDYWGQGTLVTVSSASAAA
% cell viability (AL1) [1]: 77.6% | % cell viability (AL2) [1]: 71.6% | MFI [2]: 153

B12: 30CHS-12 IgG1 (antibody, V domains shown)
VH: EVQLVESGGGLVQPGGSLRLSCAASGFTISDYWIHWVRQAPGKGLEWVAGINPYYGVTVYADSVKGRFTISADTSKNTAYLQMNSLRAEDTAVYYCARGGVLDYWGQGTLVTVSS
VL: DIQMTQSPSSLSASVGDRVTITCKSNQNLLDSGNQGTFLNWYQQKPGKAPKLLIFGTSHLYSGVPSRFSGSGSGTDFTLTISSLQPEDFATYYCSQSTDLPFTFGQGTKVEIKR
EC50 [3]: 41 ng/mL

B13: 30CHS-13 IgG1 (antibody, V domains shown)
VH: EVQLVESGGGLVQPGGSLRLSCKASGYTFGHYSMFWVRQAPGKGLEWVASIYPHYGHTYYADSVKGRFTISADTSKNTAYLQMNSLRAEDTAVYYCARGHWLDYWGQGTLVTVSS
VL: DIQMTQSPSSLSASVGDRVTITCKSNQNLLDSGNQRTYLNWYQQKPGKAPKLLIYHTSRLYSGVPSRFSGSGSGTDFTLTISSLQPEDFATYYCSQTFRHPGTFGQGTKVEIKR
EC50 [3]: 41 ng/mL

B14: 30CHS-41 IgG1 (antibody, V domains shown)
VH: EVQLVESGGGLVQPGGSLRLSCKASGYTFTHWGMHWVRQAPGKGLEWVARINPYYGLTHYADSVKGRFTISADTSKNTAYLQMNSLRAEDTAVYYCARGHWLDYWGQGTLVTVSS
VL: DIQMTQSPSSLSASVGDRVTITCKSNQNLLDSGHQRTYLNWYQQKPGKAPKLLIYHTSLLYSGVPSRFSGSGSGTDFTLTISSLQPEDFATYYCSQTFRHPGTFGQGTKVEIKR
EC50 [3]: 5 ng/mL

B15: 35WYK-9 source scFv (scFv)
chain: DIQMTQSPSSLSASVGDRVTITCKSNQNLLLSNGRTFLHWYQQKPGKAPKLLIFDVSNLYSGAPSRFSGSGSGTDFTLTISSLQPDDFATYYCSQTSRFPWTFGQGTKVEIKREVQLVESGGGLVQPGGSLRLSCKASGYTFSHWGMHWVRQAPGKGLEWVAGIYPYFGNTYYADSVKGRFTISADTSKNTAYLQMNSLRAEDTAVYYCARGLLDYWGQGTLVTVSSASAAA
% cell viability (AL1) [1]: 84.7% | % cell viability (AL2) [1]: 80.9% | MFI [2]: 265

B16: 35CPT-9 IgG1 (antibody, V domains shown)
VH: EVQLVESGGGLVQPGGSLRLSCKASGYTFGDYGMHWVRQAPGKGLEWVAHIAPNDGITHYADSVKGRFTISADTSKNTAYLQMNSLRAEDTAVYYCARGYGWYDHVMDYWGQGTLVTVSS
VL: DIQMTQSPSSLSASVGGRVTITCKSNQNLLDSYGRTYLYWYQQKPGKAPKLLISGTSGLYSGVPSRFSGSGSGTDFTLTISSLQPEDFATYYCFQGYDYPFTFGQGTKVEIKR
EC50 [3]: 31.7 ng/mL

B17: 30CHS-12 source scFv (scFv)
chain: DIQMTQSPSSLSASVGDRVTITCKSNQNLLDSGNQGTFLNWYQQKPGKAPKLLIFGTSHLYSGVPSRFSGSGSGTDFTLTISSLQPEDFATYYCSQSTDLPFTFGQGTKVEIKREVQLVESGGGLVQPGGSLRLSCAASGFTISDYWIHWVRQAPGKGLEWVAGINPYYGVTVYADSVKGRFTISADTSKNTAYLQMNSLRAEDTAVYYCARGGVLDYWGQGTLVTVSSASAAA
% cell viability (AL1) [1]: 64.9% | % cell viability (AL2) [1]: 61.7% | MFI [2]: 198

B18: 31YCM#3 IgG1 (antibody, V domains shown)
VH: EVQLVESGGGLVQPGGSLRLSCKASGYTFARSGMHWVRQAPGKGLEWVAGISPNYGLTHYADSVKGRFTISADTSKNTAYLQMNSLRAEDTAVYYCARGFGVLDYWGQGTLVTVSS
VL: DIQMTQSPSSLSASVGDRVTITCKSNQNLLISGNQWTFLNWYQQKPGKAPKLLIYDVSRLYSGVPSRFSGSGSGTDFTLTISSLQPEDFATYYCYQGSDFPGTFGQGTKVEIKR
EC50 [3]: 7.3 ng/mL

B19: 35WYK-16 source scFv (scFv)
chain: DIQMTQSPSSLSASVGDRVTITCKSNQNLLLSNGRTFLYWYQQKPGKAPKLLIYDVSDLYSGVPSRFSGSGSGTDFTLTISSLQPEDFATYYCFQGNNFPYTFGQGTKVEIKREVQLVESGGGLVQPGGSLRLSCKASGYTFGTSWMHWVRQAPGKGLEWVAGITPYYGLTFYADSVKGRFTISADTSKNTAYLQMNSLRAEDTAVYYCARGNLDYWGQGTLVTVSSASAAA
% cell viability (AL1) [1]: 72.2% | % cell viability (AL2) [1]: 41.4% | MFI [2]: 299

B20: 29TYL#1 source scFv (scFv)
chain: DIQMTQSPSSLSASVGDRVTITCKSNQNLLLSNGWTFLNWYQQKPGKAPKLLISRISDLYSGVPSRFSGSGSGTDFTLTISSLQPEDFATYYCFQASDFPYTFGQGTKVEIKREVQLVESGGGLVQPGGSLRLSCKASGYTFSTGSMHWVRQAPGKGLEWVAHINPHFGLTLYADSVKGRFTISADTSKNTAYLQMNSLRAEDTAVYYCAGSGFDYWGQGTLVTVSSASAAA
% cell viability (AL1) [1]: 67.5% | % cell viability (AL2) [1]: 32.7% | MFI [2]: 491
